From article PMC5504672 come the findings set out here.

Data set [1] has as its target T1, IolQ-His6 (DegA) (Bacillus subtilis 168) (UniProt P37947).
T1 sequence: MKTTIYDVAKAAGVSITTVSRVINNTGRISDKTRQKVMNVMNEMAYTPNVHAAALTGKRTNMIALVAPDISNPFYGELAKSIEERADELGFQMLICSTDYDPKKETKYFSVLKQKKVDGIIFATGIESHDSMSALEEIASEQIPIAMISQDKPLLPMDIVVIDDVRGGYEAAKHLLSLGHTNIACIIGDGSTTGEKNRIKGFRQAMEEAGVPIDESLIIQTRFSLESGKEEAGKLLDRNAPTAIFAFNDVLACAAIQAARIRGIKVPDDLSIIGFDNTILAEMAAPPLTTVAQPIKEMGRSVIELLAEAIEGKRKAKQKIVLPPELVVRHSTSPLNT
The data set can be described thus: EMSA. The following applies: 10 mM Tris-HCl pH 8.0, 1 mM DTT, 10 mM KCl, 5 mM MgCl2, 10% glycerol, 5 ug/ml poly d(I-C), 50 ug/ml BSA, 37 C, 30 min; DNA 0.155 pmol in 0.02 ml (EMSA) or ….

In data set [2] the target is T1, IolQ-His6 (DegA) (Bacillus subtilis 168). Description: DNase I footprinting. Conditions: 10 mM Tris-HCl pH 8.0, 1 mM DTT, 10 mM KCl, 5 mM MgCl2, 10% glycerol, 5 ug/ml poly d(I-C), 50 ug/ml BSA, 37 C, 30 min; DNA 0.155 pmol in 0.02 ml (EMSA) or ….

As for “ATGAGCGGGTTTTTTCATTATGACAGTTGAAGCCAAAAAAACATATTGCGTGTAAACCAAAGGCGGTGTAAAATATAACCATCTTTTGAGAAAGCGCTTGCGCAAAATGGCAGAGCGGATAGAACCGCTGTTTTTTTAGCTGTTAAGAGAAAACGCTTTCTCAAAGCGAGCCCGAAATGAGATAAAGGAGAGGATGGGAC (double strand) [iolX promoter 200 bp]”, the binding entry in data set [1] is listed as “binds”.
Consider “GAGCTTGTAGTCAGACATTCTACATCACCGCTCAACACATGAGCCCGCTAATGAGCGGGTTTTTTCATTATGACAGTTGAAGCCAAAAAAACATATTGCGTGTAAACCAAAGGCGGTGTAAAATATAACCATCTTTTGAGAAAGCGCTTGCGCAAAATGGCAGAGCGGATAGAACCGCTGTTTTTTTAGCTGTTAAGAGAAAACGCTTTCTCAAAGCGAGCCCGAAATGAGATAAAGGAGAGGATGGGACGTGGAACATCAAGTAAGATGTGCAGTATTGGGATTAGGAAGGCTCGGTTA (double strand) [iolX promoter 300 bp footprint probe, high affinity region]”, for which, in data set [2], the binding entry is “binds”.
